Consider 125 sequences from the supplement of paper PMC9112550, “Optimization of the antimicrobial peptide Bac7 by deep mutational scanning” (BMC Biology, 2022).
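Also: peptides expressed intracellularly from a pBAD plasmid library in pooled LB shake-flask culture, induced with 0.3% L-arabinose, DNA abundance read by NGS, three biological replicates, DESeq2 with apeglm shrinkage.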

The test system of this data set is Escherichia coli TOP10. Put plainly: shrunken log2 fold change of peptide-encoding DNA abundance (4.5 h post-induction vs induction); higher = less antimicrobial activity (less host growth inhibition). Conditions: time post-induction: 4.5 h; library: site-saturation at positions 5, 18, 19, 20.
As for RRIRGRPPRLPRPRPRPHFEPRP, the “shrunken log2 fold change” value worked out at 0.328. As for RRIRNRPPRLPRPRPRPKVLPRP, the “shrunken log2 fold change” value is -0.105.

For the sequence RRIRNRPPRLPRPRPRPNMQPRP, the “shrunken log2 fold change” value is -0.184.

For the sequence RRIRARPPRLPRPRPRPHPDPRP, the “shrunken log2 fold change” value was 0.395.

In the case of RRIRWRPPRLPRPRPRPLAYPRP, the “shrunken log2 fold change” value was 0.0203. The value for RRIRKRPPRLPRPRPRPHPCPRP was -0.22. For RRIRYRPPRLPRPRPRPPRIPRP, the “shrunken log2 fold change” value was -0.0175. RRIRTRPPRLPRPRPRPPAVPRP: the “shrunken log2 fold change” value came out at 0.292. The value for RRIRRRPPRLPRPRPRPNGQPRP was -0.00184; that for RRIRNRPPRLPRPRPRPGDYPRP was 0.0582. The value for RRIRCRPPRLPRPRPRPYISPRP was -0.637; that for RRIRFRPPRLPRPRPRPAPNPRP was 0.408; that for RRIRWRPPRLPRPRPRPMWYPRP was -0.0539. As for RRIRHRPPRLPRPRPRPVKAPRP, the “shrunken log2 fold change” value is -0.0779. With RRIRMRPPRLPRPRPRPDSRPRP the figure was -0.00783; with RRIRARPPRLPRPRPRPQEWPRP, 0.00318; with RRIRWRPPRLPRPRPRPYQHPRP, -0.692. The value for RRIRSRPPRLPRPRPRPCAYPRP was -0.431; that for RRIRCRPPRLPRPRPRPRGWPRP was 0.605. With RRIRRRPPRLPRPRPRPAAVPRP the figure was 0.462. In the case of RRIRWRPPRLPRPRPRPGICPRP, the “shrunken log2 fold change” value was determined as 0.146. The value for RRIRDRPPRLPRPRPRPWNPPRP was -0.586; that for RRIRQRPPRLPRPRPRPVPYPRP was -0.363. With RRIRPRPPRLPRPRPRPASTPRP the figure was 0.11; with RRIRFRPPRLPRPRPRPNRGPRP, 0.149. The value for RRIRVRPPRLPRPRPRPIHCPRP was 0.0605; that for RRIRARPPRLPRPRPRPTTNPRP was 0.389. RRIRMRPPRLPRPRPRPDRKPRP: the “shrunken log2 fold change” value was 0.0503. With RRIRVRPPRLPRPRPRPVFYPRP the figure was -0.178; with RRIRWRPPRLPRPRPRPIPIPRP, -0.12; with RRIRWRPPRLPRPRPRPIIEPRP, -0.273.

For the sequence RRIRVRPPRLPRPRPRPMSEPRP, the “shrunken log2 fold change” value turned out to be 0.0558. The value for RRIRNRPPRLPRPRPRPFFLPRP was -0.255; that for RRIRFRPPRLPRPRPRPAVTPRP was -0.347. The value for RRIRPRPPRLPRPRPRPYGVPRP was -0.157; that for RRIRCRPPRLPRPRPRPLCGPRP was -0.0842. Take RRIRSRPPRLPRPRPRPIGRPRP: the “shrunken log2 fold change” value was 0.104. In the case of RRIRQRPPRLPRPRPRPSFLPRP, the “shrunken log2 fold change” value is -0.355.

Consider RRIRPRPPRLPRPRPRPHELPRP, for which the “shrunken log2 fold change” value is -0.0456. RRIRSRPPRLPRPRPRPKMHPRP: the “shrunken log2 fold change” value was 0.157. The value for RRIRHRPPRLPRPRPRPPGIPRP was 0.142; that for RRIRERPPRLPRPRPRPPVTPRP was -0.152; that for RRIRCRPPRLPRPRPRPLMHPRP was -0.264. Take RRIRYRPPRLPRPRPRPWLWPRP: the “shrunken log2 fold change” value stood at 0.0662. Take RRIRMRPPRLPRPRPRPTSAPRP: the “shrunken log2 fold change” value was found to be 0.74. The value for RRIRVRPPRLPRPRPRPAPVPRP was 0.349; that for RRIRMRPPRLPRPRPRPNCPPRP was -0.0204.

With RRIRMRPPRLPRPRPRPVYAPRP, the “shrunken log2 fold change” value was found to be 0.243. The value for RRIRHRPPRLPRPRPRPSWYPRP was -0.152; that for RRIRSRPPRLPRPRPRPQVNPRP was -0.00752; that for RRIRLRPPRLPRPRPRPELAPRP was 0.0176. Consider RRIRKRPPRLPRPRPRPEWRPRP, for which the “shrunken log2 fold change” value came to 0.295. On to RRIRHRPPRLPRPRPRPQSIPRP, for which the “shrunken log2 fold change” value was -0.0188. RRIRPRPPRLPRPRPRPMYTPRP: the “shrunken log2 fold change” value was -0.236. The value for RRIRMRPPRLPRPRPRPCAYPRP was 0.227. The value for RRIRRRPPRLPRPRPRPWSQPRP was -0.132.

As for RRIRFRPPRLPRPRPRPLPRPRP, the “shrunken log2 fold change” value amounted to 0.669.

Turning to RRIRCRPPRLPRPRPRPASHPRP, the “shrunken log2 fold change” value is -0.241. The value for RRIRHRPPRLPRPRPRPLVSPRP was 0.0121. Turning to RRIRWRPPRLPRPRPRPNWQPRP, the “shrunken log2 fold change” value was -0.0101.

As to RRIRMRPPRLPRPRPRPLMLPRP, the “shrunken log2 fold change” value was -0.0158. Take RRIRWRPPRLPRPRPRPWFWPRP: the “shrunken log2 fold change” value was found to be 0.123. Consider RRIRFRPPRLPRPRPRPKWEPRP, for which the “shrunken log2 fold change” value worked out at 0.223. The value for RRIRFRPPRLPRPRPRPVDFPRP was -0.452. The value for RRIRSRPPRLPRPRPRPANEPRP was 0.0433; that for RRIRQRPPRLPRPRPRPNCVPRP was -0.0688; that for RRIRQRPPRLPRPRPRPNPHPRP was 0.121. With RRIRIRPPRLPRPRPRPVCNPRP the figure was -0.52; with RRIRSRPPRLPRPRPRPMDGPRP, -0.095; with RRIRLRPPRLPRPRPRPGGEPRP, 0.343. RRIRVRPPRLPRPRPRPWDKPRP: the “shrunken log2 fold change” value is -0.0363. On to RRIRYRPPRLPRPRPRPNSMPRP, for which the “shrunken log2 fold change” value is -1.77.

As to RRIRIRPPRLPRPRPRPRAPPRP, the “shrunken log2 fold change” value came to 0.347.

RRIRPRPPRLPRPRPRPFMKPRP: the “shrunken log2 fold change” value is -0.915. With RRIRCRPPRLPRPRPRPHDLPRP the figure was -0.46; with RRIRVRPPRLPRPRPRPAIRPRP, 0.0362. For RRIRCRPPRLPRPRPRPRARPRP, the “shrunken log2 fold change” value is 0.708. Turning to RRIRCRPPRLPRPRPRPFSTPRP, the “shrunken log2 fold change” value was -0.472. Take RRIRRRPPRLPRPRPRPYWQPRP: the “shrunken log2 fold change” value is -0.0961. The value for RRIRLRPPRLPRPRPRPNHWPRP was 0.0994; that for RRIRHRPPRLPRPRPRPNLSPRP was 0.28; that for RRIRPRPPRLPRPRPRPCRNPRP was -0.176. The value for RRIRDRPPRLPRPRPRPHCLPRP was 0.12. On to RRIRMRPPRLPRPRPRPIKWPRP, for which the “shrunken log2 fold change” value is -0.00876. With RRIRRRPPRLPRPRPRPTGVPRP the figure was 0.616.

Turning to RRIRNRPPRLPRPRPRPSRRPRP, the “shrunken log2 fold change” value is 0.27.

With RRIRDRPPRLPRPRPRPRNIPRP, the “shrunken log2 fold change” value is -0.0463. With RRIRGRPPRLPRPRPRPEGCPRP, the “shrunken log2 fold change” value turned out to be 1.65. With RRIRHRPPRLPRPRPRPAPWPRP the figure was 0.0941.

For RRIRQRPPRLPRPRPRPYKTPRP, the “shrunken log2 fold change” value was -0.0141. On to RRIRTRPPRLPRPRPRPFYKPRP, for which the “shrunken log2 fold change” value is -0.6. As to RRIRHRPPRLPRPRPRPAVAPRP, the “shrunken log2 fold change” value is 0.117. The value for RRIRGRPPRLPRPRPRPITIPRP was 0.0958; that for RRIRIRPPRLPRPRPRPWNNPRP was -0.89; that for RRIRDRPPRLPRPRPRPLCCPRP was 0.0616. With RRIRARPPRLPRPRPRPREFPRP the figure was 0.441.

As to RRIRLRPPRLPRPRPRPSMMPRP, the “shrunken log2 fold change” value is -0.358. Consider RRIRARPPRLPRPRPRPDMDPRP, for which the “shrunken log2 fold change” value stood at 0.3. RRIRYRPPRLPRPRPRPMPPPRP: the “shrunken log2 fold change” value was -0.331. On to RRIRSRPPRLPRPRPRPFFQPRP, for which the “shrunken log2 fold change” value is -0.105.

With RRIRWRPPRLPRPRPRPCVCPRP, the “shrunken log2 fold change” value came out at 0.222.

On to RRIRMRPPRLPRPRPRPGAHPRP, for which the “shrunken log2 fold change” value was found to be 0.473.

For RRIRSRPPRLPRPRPRPVEMPRP, the “shrunken log2 fold change” value worked out at 0.0369. For RRIRFRPPRLPRPRPRPENCPRP, the “shrunken log2 fold change” value is -0.855. On to RRIRVRPPRLPRPRPRPMCPPRP, for which the “shrunken log2 fold change” value turned out to be 0.0857.

RRIRCRPPRLPRPRPRPWIGPRP: the “shrunken log2 fold change” value is -0.775. The value for RRIRKRPPRLPRPRPRPMKNPRP was 0.212; that for RRIRERPPRLPRPRPRPILFPRP was -0.57; that for RRIRFRPPRLPRPRPRPSNEPRP was -0.378.

As to RRIRWRPPRLPRPRPRPTTCPRP, the “shrunken log2 fold change” value was -0.00726. With RRIRWRPPRLPRPRPRPDNYPRP the figure was -0.00844.

In the case of RRIRYRPPRLPRPRPRPKNDPRP, the “shrunken log2 fold change” value is -0.737.

RRIRDRPPRLPRPRPRPRATPRP: the “shrunken log2 fold change” value was found to be 0.614. In the case of RRIRDRPPRLPRPRPRPTLNPRP, the “shrunken log2 fold change” value was 0.171. Consider RRIRNRPPRLPRPRPRPHENPRP, for which the “shrunken log2 fold change” value is -0.164. For RRIRLRPPRLPRPRPRPFWEPRP, the “shrunken log2 fold change” value was 0.117. The value for RRIRERPPRLPRPRPRPDIIPRP was 0.0463. With RRIRDRPPRLPRPRPRPASMPRP the figure was 0.483; with RRIRTRPPRLPRPRPRPFHWPRP, 0.036.

RRIRTRPPRLPRPRPRPRMVPRP: the “shrunken log2 fold change” value was found to be 0.0186. With RRIRFRPPRLPRPRPRPFAEPRP the figure was -0.348; with RRIRTRPPRLPRPRPRPTVYPRP, -0.0364.

With RRIRSRPPRLPRPRPRPVVPPRP, the “shrunken log2 fold change” value is 0.0433.

Take RRIRARPPRLPRPRPRPPGLPRP: the “shrunken log2 fold change” value was determined as 0.517. With RRIRVRPPRLPRPRPRPPKKPRP the figure was 0.167.
